Molecular target: myc-Snc2p (S. cerevisiae) (UniProt P33328)
Experiment: co-IP

UniProt P33328, sequence (P33328 whole entry): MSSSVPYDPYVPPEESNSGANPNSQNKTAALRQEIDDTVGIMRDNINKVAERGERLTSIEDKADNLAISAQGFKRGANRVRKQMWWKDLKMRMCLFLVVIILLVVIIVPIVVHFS

“Sso1/2p (endogenous) (from UniProt P32867 1-290) (natural protein)” showed a percent reduction of co-precipitation, wt cells at 37°C against 30°C of 10%.
